From patent US20120040894A1
Numbered stars: 1 amine (or outer) side, 2 acyl side, 3 side chain; on linkers, the order of the positions; unused ones are H or OH. Square brackets hold non-standard residues; d marks the D form. Ends that are not written are not given here. Dap(AcBr) = N-(bromoacetyl)-L-2,3-diaminopropionic acid, O=C(CBr)NC[C@H](N[*:1])C(=O)[*:2]; Oic = O=C(O)[C@@H]1C[C@@H]2CCCC[C@@H]2N1; Dip = N[C@H](C(=O)O)C(c1ccccc1)c1ccccc1; β3hF = N[C@H](CC(=O)O)Cc1ccccc1; Chg = N[C@H](C(=O)O)C1CCCCC1; Phg = N[C@H](C(=O)O)c1ccccc1; Tle = CC(C)(C)[C@H](N)C(=O)O; β3hP = O=C(O)C[C@@H]1CCCN1; Dpa = not defined here

T1: ferroportin tagged at the C-terminus with green fluorescent protein (ECR293/Fpn-GFP cells)
T1 sequence (Q9NP59 whole entry, species assumed, looked up): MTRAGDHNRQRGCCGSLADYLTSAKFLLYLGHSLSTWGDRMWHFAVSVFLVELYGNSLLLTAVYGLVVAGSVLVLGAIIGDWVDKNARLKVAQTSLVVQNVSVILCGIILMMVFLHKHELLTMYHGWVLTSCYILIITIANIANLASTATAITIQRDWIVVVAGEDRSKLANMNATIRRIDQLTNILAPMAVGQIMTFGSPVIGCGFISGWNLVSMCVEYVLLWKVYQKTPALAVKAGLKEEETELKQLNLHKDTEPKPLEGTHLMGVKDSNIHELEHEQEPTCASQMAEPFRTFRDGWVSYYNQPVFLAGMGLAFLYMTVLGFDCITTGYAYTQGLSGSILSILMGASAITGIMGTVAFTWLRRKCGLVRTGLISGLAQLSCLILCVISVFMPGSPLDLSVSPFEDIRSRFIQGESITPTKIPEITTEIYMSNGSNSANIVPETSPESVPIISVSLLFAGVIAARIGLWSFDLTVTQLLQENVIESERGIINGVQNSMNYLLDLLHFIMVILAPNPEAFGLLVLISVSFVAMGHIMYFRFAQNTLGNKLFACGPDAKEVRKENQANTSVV

B1: Pr10 (peptide)
peptide: D[Tle]H[Phg][Oic][Chg]C[Chg]F-NH2
modifications: N-terminus assumed
SMILES: CC(C)(C)[C@H](NC(=O)[C@@H](N)CC(=O)O)C(=O)N[C@@H](Cc1c[nH]cn1)C(=O)N[C@H](C(=O)N1[C@H](C(=O)N[C@H](C(=O)N[C@@H](CS)C(=O)N[C@H](C(=O)N[C@@H](Cc2ccccc2)C(N)=O)C2CCCCC2)C2CCCCC2)C[C@@H]2CCCC[C@@H]21)c1ccccc1
B2: Dap(AcBr) (peptide)
peptide: DTHFPI[Dap(AcBr)]IF-NH2
modifications: N-terminus assumed
SMILES: CC[C@H](C)[C@H](NC(=O)[C@H](CNC(=O)CBr)NC(=O)[C@@H](NC(=O)[C@@H]1CCCN1C(=O)[C@H](Cc1ccccc1)NC(=O)[C@H](Cc1c[nH]cn1)NC(=O)[C@@H](NC(=O)[C@@H](N)CC(=O)O)[C@@H](C)O)[C@@H](C)CC)C(=O)N[C@@H](Cc1ccccc1)C(N)=O

The binders below were run against T1, ferroportin tagged at the C-terminus with green fluorescent protein (ECR293/Fpn-GFP cells) (assay: cell-based or functional assay).
DTHFPICI[β3hF]PPR-NH2 [Pr20] gave an EC50 (nM); loss of fluorescence of Fpn-GFP cells, flow cytometry of 200 nM. D[Tle]HP[Oic][Chg]C[Chg]F-NH2 (also: retroinverted) [Pr11] gave an EC50 (nM); loss of fluorescence of Fpn-GFP cells, flow cytometry greater than 3000 nM. For D[Dpa]PICIF-NH2 (reading uncertain) [Pr40], the EC50 (nM); loss of fluorescence of Fpn-GFP cells, flow cytometry was 70 nM. Work on B1 yielded an EC50 (nM); loss of fluorescence of Fpn-GFP cells, flow cytometry greater than 3000 nM. DTHFPICI[β3hF]P[β3hP]R-NH2 [Pr22] showed an EC50 (nM); loss of fluorescence of Fpn-GFP cells, flow cytometry of 600 nM. DTHFPICI[β3hF]PPK-NH2 [Pr19] was tested, and the EC50 (nM); loss of fluorescence of Fpn-GFP cells, flow cytometry was 700 nM. B2 gave an EC50 (nM); loss of fluorescence of Fpn-GFP cells, flow cytometry greater than 10000 nM. For D[Dpa]PICI[Dpa]-NH2 (reading uncertain) [Pr41], the EC50 (nM); loss of fluorescence of Fpn-GFP cells, flow cytometry was 300 nM. In the case of DTH[Dip]PCCC[Dip]-NH2 (also: any disulfide between the Cys residues not recoverable) [Pr46], the EC50 (nM); loss of fluorescence of Fpn-GFP cells, flow cytometry is reported as 80 nM. DTHFPICI[β3hF]P[β3hP]K-NH2 [Pr21] showed an EC50 (nM); loss of fluorescence of Fpn-GFP cells, flow cytometry of 500 nM.
